The values below come from patent publication US20060264369, “Aptamers to von Willebrand Factor and their use as thrombotic disease therapeutics” (published 2006).

Series [1] deals with T1, von Willebrand factor A1 domain (Homo sapiens, UniProt P04275 SEQ:13-246). As to the kind of experiment: filter; no binding. To be noted: label: 5'-32P.
Series [2] concerns the target T2, von Willebrand factor full length (Homo sapiens, UniProt P04275 SEQ:764-2813). Kind of series: filter; 21% bound at 100 nM vWF. The settings on record: tags: Calbiochem 681300; label: 5'-32P. The procedure:
(§1) For KD determination, chemically synthesized aptamers were purified using denaturing polyacrylamide gel electrophoresis, 5′end labeled with γ-³²P ATP and were tested for direct binding to full length human vWF (Calbiochem Cat.# 681300, La Jolla, Calif.). An 8 point protein titration was used in the dot blot binding assay (100 nM, 30 nM, 10 nM, 3 nM, 1 nM, 300 pM, 100 pM, 0 pM)) in 1× Dulbecco's PBS containing […] (final volume of 50 uL) for 30 minutes at room temperature. KD values were calculated by fitting the equation y=(max/(1+K/protein))+yint using KaleidaGraph (KaleidaGraph v. 3.51, Synergy Software).

The target in series [3] is T1, von Willebrand factor A1 domain. As to the kind of experiment: filter; DPBS, 0.1 mg/mL BSA, RT. To be noted: label: 5'-32P. The protocol:
(§2) KD values were calculated by fitting the equation y=(max/(1+K/protein))+yint using KaleidaGraph (KaleidaGraph v. 3.51, Synergy Software).

For series [4], the target named is T2, von Willebrand factor full length. As to the kind of experiment: filter; DPBS, 0.1 mg/mL BSA, RT. The settings on record: tags: Calbiochem 681300; label: 5'-32P. The protocol:
as §2

Series [5] shares this target. Kind of series: filter; no binding. The settings on record: tags: Calbiochem 681300; label: 5'-32P. The procedure:
as §1

Series [6] has the same target. Kind of series: filter; 26% bound at 100 nM vWF. To be noted: tags: Calbiochem 681300; label: 5'-32P. The procedure:
as §1

The target is the same in series [7]. As to the kind of experiment: filter; DPBS, 0.1 mg/mL BSA, RT. The settings on record: tags: Calbiochem 681300; label: 5'-32P. The procedure: Based on this initial screen, KDs were determined for 3 of the vWF dependent binding sequences using the dot blot assay. […] A 12 point protein titration was used in the dot blot assay (300 nM, 100 nM, 30 nM, 10 nM, 3 nM, 1 nM, 300 pM, 100 pM, 30 pM, 10 pM, 3 pM, 0 pM) in 1× DPBS plus 0.1 mg/mL BSA at room temperature for 30 minutes. KD values were calculated by fitting the equation y=(max/(1+K/protein))+yint using KaleidaGraph (KaleidaGraph v. 3.51, Synergy Software).
The source holds these as a separate data set.

For series [8] the target is unchanged. Kind of series: cell_activity; IC90 BIPA in human platelet rich plasma. The procedure:
In order to determine the activity of aptamers on live human platelets, BIPA assays were done using freshly prepared platelet rich plasma. Blood was obtained from healthy human donors who had not taken NSAIDS for at least five days. […] Collected blood was pooled into 15 mL conical tubes and was spun at 200 g for 20 minutes. The turbid, yellow layer of platelet rich plasma (“PRP”) was withdrawn from the tubes, pooled, and set aside at room temperature. The remaining blood was spun at 2500 g for ten minutes. The clarified layer of plasma, known as platelet poor plasma (“PPP”), was withdrawn and set aside at room temperature. PRP was aliquoted into cuvettes containing stir bars at a volume of 470 uL. A sample of 500 uL of PPP was aliquoted into a cuvette and placed in the PPP reference cell of the platelet aggregometer. Samples of PRP were prewamed at 37 degrees C. in the platelet aggregometer for 3-5 minutes before being used in BIPA assays. First, the concentration of botrocetin needed to induce platelet aggregation for each individual donor was determined by titration. This concentration of botrocetin was used for the remainder of the experiment. Next, aptamer was assayed by adding titrations of aptamer (zero, 1 nM to 1000 nM) to prewarmed PRP for one minute, followed by addition of botrocetin. With platelet aggregation, an increase in amplitude of light transmission is seen (FIG. 8). The concentration at which platelet aggregation is blocked at 90% or greater after 6 minutes is reported in the final column of Table 26.

The target is the same in series [9]. As to the kind of experiment: filter; 25% bound at 100 nM vWF. The settings on record: tags: Calbiochem 681300; label: 5'-32P. The procedure: as §1
The target is the same in series [10]. Kind of series: filter; 43% bound at 100 nM. To be noted: tags: Calbiochem 681300. The protocol: as §1
Series [11] has the same target. Kind of series: filter; 50% bound at 100 nM. To be noted: tags: Calbiochem 681300. The protocol:
as §1

The target is the same in series [12]. As to the kind of experiment: filter; 39% bound at 100 nM. To be noted: tags: Calbiochem 681300. The protocol:
as §1

Series [13] has the same target. As to the kind of experiment: filter; 49% bound at 100 nM. To be noted: tags: Calbiochem 681300. The protocol:
as §1

Series [14] has the same target. As to the kind of experiment: filter; 37% bound at 100 nM. To be noted: tags: Calbiochem 681300. The protocol: as §1

B1: DNA1 minimer SEQ 204 (ssDNA)
DNA: CCAGCGGAATGAGAATGCTGATGGATTGCTCAGGTCTGCTGG
In the case of B1, the binding result in [1] was “no binding”.

B2: ARC1343 (mixed)
mixed: GGCGUGCAGUGCCUUCGGCCGTGCGGTGCCUCCGUCACGCC
modifications: 2'-OMe/deoxy composite with 4 PS as printed in Table 22, 3'-idT
Take B2: the Kd in series [2] is 23.9 nM.

B3: rRdY minimer SEQ 198 (mixed)
DNA: GGCCACACGACATTGGCGGGCGAGAGCCACGCATGGCC
modifications: 2'-OH purines, deoxy pyrimidines
Consider B3, for which the Kd worked out at 5 nM in [3] and 3 nM in series [4].

B4: ARC1347 (mixed)
mixed: GGCGUGCAGUGCUUCGCCGTGCGGTGCCUCCGUCACGCC
modifications: 2'-OMe/deoxy composite, 3'-idT
As for B4, the binding result in series [5] is “no binding”.

B5: ARC1546 (mixed)
mixed: CCGGCCGTGCGGTGCCUCCGUCACGUUCCGUGCAGUGCCGG
modifications: 2'-OMe/deoxy composite, single PS, 3'-idT
Turning to B5, the Kd in series [6] came out at 24 nM.

B6: AMX237.G6 (ssDNA)
DNA: CTACCTACGATCTGACTAGCGTGCAGTGCCTATTCCAGGCCGTGCGGTGCCTCCGTCACGCTTACTCTCATGTAGTTCC
Turning to B6, the Kd in series [7] came to 0.2 nM.

B7: AMX238.E9 (ssDNA)
DNA: CTACCTACGATCTGACTAGCGTGCAGTGCCCATCTTAGGCCGTGCGGTGCCTCCGTCACGCTTACTCTCATGTAGTTCC
In the case of B7, in [7], the Kd is 0.39 nM.

B8: AMX238.H5 (ssDNA)
DNA: CTACCTACGATCTGACTAGCGTGCAGTGCCTATTCTAGGCCGTGCGGTGCCTCCGTCACGCTTACTCTCATGTAGTTCC
As to B8, the Kd in series [7] came to 0.33 nM.

B9: rRdY minimer SEQ 192 (mixed)
DNA: GGAGCCACACGACATTGGCGGGCGAGAGCCACGCATGGCTCC
modifications: 2'-OH purines, deoxy pyrimidines
For the molecule B9, the Kd in series [3] turned out to be 4 nM; in series [4], 2 nM.

B10: rRdY minimer SEQ 180 (mixed)
DNA: GGAGCCACGGGGTGGGTAGACGGCGGGTATGTGGCTCC
modifications: 2'-OH purines, deoxy pyrimidines
For the molecule B10, the Kd worked out at 11 nM in series [3] and 1 nM in [4].

B11: ARC1779 (mixed)
mixed: GCGUGCAGUGCCUUCGGCCGTGCGGTGCCUCCGUCACGC
modifications: 2'-OMe at 1-4,8-18,20,22,27,28,30,33,34,36-39, rest deoxy; PS between 20 and 21; 5'-PEG20K-hexylamine; 3'-idT
Take B11: in [8], the activity was approximately 100 nM.

B12: ARC1780 (mixed)
mixed: GCGUGCAGUGCCUUCGGCCGTGCGGTGCCUCCGUCACGC
modifications: 2'-OMe at 1-4,8-18,20,22,27,28,30,33,34,36-39, rest deoxy; PS between 20 and 21; 5'-PEG40K-hexylamine; 3'-idT [2'-OMe at 1-4,8-18,20,22,27,28,30,33,34,36-39, rest deoxy; PS between 20 and 21 (printed S left out); 5'-PEG40K-hexylamine (left out); 3'-idT at 40]
The molecule B12 displayed an activity in [8] of approximately 100 nM.

B13: DNA1 minimer SEQ 206 (ssDNA)
DNA: CGATCTGACTAGCGGAATGAGAATGCTGGTGGATCG
Turning to B13, the binding result in series [1] is given as “no binding”.

B14: ARC1200 (ssDNA)
DNA: GGCGTGCAGTGCCTTCGGCCGTGCGGTGCCTCCGTCACGCC
modifications: 2'-OMe C7, 3'-idT
In the case of B14, the Kd in series [9] is 5 nM.

B15: ARC1341 (mixed)
mixed: GGCGUGCAGUGCCUUCGGCCGTGCGGTGCCTCCGTCACGCC
modifications: 2'-OMe at 1-5, 9-19, 37-41, 3'-idT
For the molecule B15, the Kd in series [6] worked out at 22.5 nM.

B16: ARC1213 (ssDNA)
DNA: GGCGTGCAGTGCCTTCGGCCGTGCGGTGCCTCCGTCACGCC
modifications: 2'-OMe at 20; 3'-idT
On to B16, for which the Kd in series [10] turned out to be 6 nM.

B17: ARC1231 (ssDNA)
DNA: GGCGTGCAGTGCCTTCGGCCGTGCGGTGCCTCCGTCACGCC
modifications: 2'-OMe at 38; 3'-idT
On to B17, for which, in series [11], the Kd is 1 nM.

B18: ARC1221 (ssDNA)
DNA: GGCGTGCAGTGCCTTCGGCCGTGCGGTGCCTCCGTCACGCC
modifications: 2'-OMe at 28; 3'-idT
As for B18, the Kd in [10] was found to be 1 nM.

B19: ARC1238 (ssDNA)
DNA: GGCGTGCAGTGCCTTCGGCCGTGCGGTGCCTCCGTCACGCC
modifications: 2'-OMe at 11,17,18; 3'-idT
As to B19, the Kd in series [10] was found to be 2 nM.

B20: ARC1205 (ssDNA)
DNA: GGCGTGCAGTGCCTTCGGCCGTGCGGTGCCTCCGTCACGCC
modifications: 2'-OMe at 12; 3'-idT
Consider B20, for which the Kd in series [11] was 1 nM.

B21: ARC1233 (ssDNA)
DNA: GGCGTGCAGTGCCTTCGGCCGTGCGGTGCCTCCGTCACGCC
modifications: 2'-OMe at 40; 3'-idT
Regarding B21, in [12], the Kd worked out at 2 nM.

B22: ARC1206 (ssDNA)
DNA: GGCGTGCAGTGCCTTCGGCCGTGCGGTGCCTCCGTCACGCC
modifications: 2'-OMe at 13; 3'-idT
Turning to B22, the Kd in series [11] amounted to 2 nM.

B23: ARC1214 (ssDNA)
DNA: GGCGTGCAGTGCCTTCGGCCGTGCGGTGCCTCCGTCACGCC
modifications: 2'-OMe at 21; 3'-idT
As for B23, the Kd in [12] came out at 3 nM.

B24: ARC1210 (ssDNA)
DNA: GGCGTGCAGTGCCTTCGGCCGTGCGGTGCCTCCGTCACGCC
modifications: 2'-OMe at 17; 3'-idT
As to B24, the Kd in [13] is 2 nM.

B25: ARC1229 (ssDNA)
DNA: GGCGTGCAGTGCCTTCGGCCGTGCGGTGCCTCCGTCACGCC
modifications: 2'-OMe at 36; 3'-idT
With B25, in [14], the Kd is 5 nM.

B26: ARC1223 (ssDNA)
DNA: GGCGTGCAGTGCCTTCGGCCGTGCGGTGCCTCCGTCACGCC
modifications: 2'-OMe C30, 3'-idT
In the case of B26, in series [6], the Kd came to 36 nM.

B27: ARC1338 (mixed)
mixed: GGCGUGCAGTGCCTTCGGCCGTGCGGTGCCTCCGTCACGCC
modifications: 2'-OMe at 1-5 and 37-41, 3'-idT
On to B27, for which the Kd in series [2] stood at 7.4 nM.

B28: ARC1226 (ssDNA)
DNA: GGCGTGCAGTGCCTTCGGCCGTGCGGTGCCTCCGTCACGCC
modifications: 2'-OMe C33, 3'-idT
Turning to B28, the Kd in [9] was determined as 12 nM.

B29: ARC1228 (ssDNA)
DNA: GGCGTGCAGTGCCTTCGGCCGTGCGGTGCCTCCGUCACGCC
modifications: 2'-OMe at 35 (mU); 3'-idT
With B29, the Kd in series [10] came to 2 nM.

B30: ARC1239 (ssDNA)
DNA: GGCGTGCAGTGCCTTCGGCCGTGCGGTGCCTCCGTCACGCC
modifications: 2'-OMe at 12,13,19; 3'-idT
In the case of B30, the Kd in [14] came out at 5 nM.

B31: ARC1212 (ssDNA)
DNA: GGCGTGCAGTGCCTTCGGCCGTGCGGTGCCTCCGTCACGCC
modifications: 2'-OMe at 19; 3'-idT
Regarding B31, the Kd in series [13] stood at 2 nM.

B32: ARC1885 (ssDNA)
DNA: GGCGTGCAGTGCCTTCGGCCGTGCGGTGCCTCCGTCACGCC
modifications: 5'-PEG20K-hexylamine; 3'-idT
B32 showed an activity in series [8] of approximately 50 nM.

B33: ARC1348 (mixed)
mixed: GCGUGCAGUGCUUCGCCGTGCGGTGCCUCCGUCACGC
modifications: 2'-OMe/deoxy composite, 3'-idT
B33: the binding result in series [5] is on record as “no binding”.
